Experimental data: paper doi:10.1101/2024.11.03.621760 (bioRxiv, 2024)

Experiments:
[1] = biological target: prefusion MERS-CoV EMC/2012 S ectodomain trimer (MERS-CoV-2P S) (MERS-CoV EMC/2012); experiment: SPR
[2] = biological target: prefusion MERS-CoV EMC/2012 S ectodomain trimer (MERS-CoV-2P S) (MERS-CoV EMC/2012)

B1: nHALC3_919_cb3 (designed binder)
chain: MSGSPVKRFVREVLEEAEEAYEKGDRRQFEELLWLAEWAARDANDEELEEEIREFEKEVKGSGSEELLEELRELLERLQELLELIEQGKITPEQLREAIALLIEVLQILYEALRELAEQLQRLREELGGS
In the case of B1, the Kd [1] is reported as 0.11 nM, the koff [1] is reported as 6e-05 s⁻¹ and the kon [1] is reported as 560000 M⁻¹ s⁻¹. The Table S6, nHALC3 919: neutralisation IC50, EMC/2012 S VSV pseudovirus, exp 1 [2] was 5.9 nM and the Table S6, nHALC3 919: neutralisation IC50, EMC/2012 S VSV pseudovirus, exp 2 [2] was 1.7 nM.

B2: cHALC3_919_cb3 (designed binder)
chain: MSGSEELLEELRELLERLQELLELIEQGKITPEQLREAIALLIEVLQILYEALRELAEQLQRLREELGGSGSPVKRFVREVLEEAEEAYEKGDRRQFEELLWLAEWAARDANDEELEEEIREFEKEVKGS
Work on B2 yielded a Table S6, cHALC3 919: neutralisation IC50, EMC/2012 S VSV pseudovirus, exp 1 [2] of 15.3 nM and a Table S6, cHALC3 919: neutralisation IC50, EMC/2012 S VSV pseudovirus, exp 2 [2] of 5 nM.
